Experimental data published in patent US20110091460A1 (REGENTS OF THE UNIVERSITY OF MINNESOTA, published 2011).

Molecular target: epidermal growth factor receptor (EGFR) (human, UniProt P00533 25-1210)
Test: cell-based or functional assay

B1: EGF4 KDEL (ligand)
chain: MNSDSECPLSHDGYCLHDGVCMYIEALDKYACNCVVGYIGERCQYRDLKWWELRPSGQAGAAASESLFVSNHAYMGLTSQLLPPLFFLLACAGNFVHGHKCDITLQEIIKTLNSLTEQKTLCTELTVTDIFAASKNTTEKETFCRAATVLRQFYSHHEKDTRCLGATAQQFHRHKQLIRFLKRLDRNLWGLAGLNSCPVKEANQSTLENFLERLKTIMREKYSKCSSEASGGPEPEGGSLAALTAHQACHLPLETFTRHRQPRGWEQLEQCGYPVQRLVALYLAARLSWNQVDQVIRNALASPGSGGDLGEAIREQPEQARLALTLAAAESERFVRQGTGNDEAGAANADVVSLTCPVAAGECAGPADSGDALLERNYPTGAEFLGDGGDVSFSTRGTQNWTVERLLQAHRQLEERGYVFVGYHGTFLEAAQSIVFGGVRARSQDLDAIWRGFYIAGDPALAYGYAQDQEPDARGRIRNGALLRVYVPRSSLPGFYRTSLTLAAPEAAGEVERLIGHPLPLRLDAITGPEEEGGRLETILGWPLAERTVVIPSAIPTDPRNVGGDLDPSSIPDKEQAISALPDYASQPGKPPKDEL
- IC50, killing of MDA-MB-231 cells (3H-thymidine uptake assay): 2 pM
